In the experiment the target is PRKCB, P05771-1.

These results are taken from IntAct's records for PubMed 20228790.

PRKCB, P05771-1, sequence (P05771 whole entry, looked up): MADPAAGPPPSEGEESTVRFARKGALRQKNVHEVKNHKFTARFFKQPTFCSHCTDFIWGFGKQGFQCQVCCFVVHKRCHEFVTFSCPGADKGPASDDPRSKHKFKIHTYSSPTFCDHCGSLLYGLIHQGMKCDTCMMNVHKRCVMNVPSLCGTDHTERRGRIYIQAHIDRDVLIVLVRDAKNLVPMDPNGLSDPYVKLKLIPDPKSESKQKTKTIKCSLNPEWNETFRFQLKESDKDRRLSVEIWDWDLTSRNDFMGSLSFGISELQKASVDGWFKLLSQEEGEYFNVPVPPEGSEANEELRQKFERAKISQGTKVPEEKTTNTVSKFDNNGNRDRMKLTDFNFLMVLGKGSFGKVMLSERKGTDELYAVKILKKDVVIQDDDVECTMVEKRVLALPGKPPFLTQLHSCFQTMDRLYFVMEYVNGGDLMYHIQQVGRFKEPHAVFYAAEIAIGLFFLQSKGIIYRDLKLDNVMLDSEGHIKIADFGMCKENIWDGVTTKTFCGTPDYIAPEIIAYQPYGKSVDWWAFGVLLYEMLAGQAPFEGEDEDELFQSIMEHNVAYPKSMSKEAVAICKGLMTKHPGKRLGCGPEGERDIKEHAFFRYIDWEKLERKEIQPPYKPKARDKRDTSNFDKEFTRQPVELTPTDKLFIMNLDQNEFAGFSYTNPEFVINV

Consider “Histone H3.1 (Homo sapiens) (from UniProt P68431) T7A”, for which the “effect of a mutation on the interaction” value was “disrupting interaction”.
